Test results reported in patent publication US20230279406A1.
Values belong to the binder of their own block, whether it stands above or below them.

Key:
Test in all cases: cell-based or functional assay
[1] = molecular target: T1, CD244 PV1-GAI-L1-RfxCas13d-560C-NLS-BGHpA
T1 sequence: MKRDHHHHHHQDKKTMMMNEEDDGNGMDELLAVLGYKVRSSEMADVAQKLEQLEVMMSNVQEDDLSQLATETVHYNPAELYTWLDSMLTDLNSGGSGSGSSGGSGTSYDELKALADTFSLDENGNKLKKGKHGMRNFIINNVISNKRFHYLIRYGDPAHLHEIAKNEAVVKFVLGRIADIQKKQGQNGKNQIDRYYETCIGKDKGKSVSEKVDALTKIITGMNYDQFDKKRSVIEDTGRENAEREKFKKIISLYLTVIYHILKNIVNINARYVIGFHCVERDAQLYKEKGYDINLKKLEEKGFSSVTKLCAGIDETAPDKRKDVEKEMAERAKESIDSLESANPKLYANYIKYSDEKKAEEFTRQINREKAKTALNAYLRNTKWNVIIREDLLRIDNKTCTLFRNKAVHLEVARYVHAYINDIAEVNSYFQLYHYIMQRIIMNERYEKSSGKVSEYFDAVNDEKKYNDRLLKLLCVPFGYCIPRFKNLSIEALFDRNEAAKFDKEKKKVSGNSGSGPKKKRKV

[2] = molecular target: T2, CD400 PV1-GAI-L1-RfxCas13d-264C-NLS-BGHpA
T2 sequence: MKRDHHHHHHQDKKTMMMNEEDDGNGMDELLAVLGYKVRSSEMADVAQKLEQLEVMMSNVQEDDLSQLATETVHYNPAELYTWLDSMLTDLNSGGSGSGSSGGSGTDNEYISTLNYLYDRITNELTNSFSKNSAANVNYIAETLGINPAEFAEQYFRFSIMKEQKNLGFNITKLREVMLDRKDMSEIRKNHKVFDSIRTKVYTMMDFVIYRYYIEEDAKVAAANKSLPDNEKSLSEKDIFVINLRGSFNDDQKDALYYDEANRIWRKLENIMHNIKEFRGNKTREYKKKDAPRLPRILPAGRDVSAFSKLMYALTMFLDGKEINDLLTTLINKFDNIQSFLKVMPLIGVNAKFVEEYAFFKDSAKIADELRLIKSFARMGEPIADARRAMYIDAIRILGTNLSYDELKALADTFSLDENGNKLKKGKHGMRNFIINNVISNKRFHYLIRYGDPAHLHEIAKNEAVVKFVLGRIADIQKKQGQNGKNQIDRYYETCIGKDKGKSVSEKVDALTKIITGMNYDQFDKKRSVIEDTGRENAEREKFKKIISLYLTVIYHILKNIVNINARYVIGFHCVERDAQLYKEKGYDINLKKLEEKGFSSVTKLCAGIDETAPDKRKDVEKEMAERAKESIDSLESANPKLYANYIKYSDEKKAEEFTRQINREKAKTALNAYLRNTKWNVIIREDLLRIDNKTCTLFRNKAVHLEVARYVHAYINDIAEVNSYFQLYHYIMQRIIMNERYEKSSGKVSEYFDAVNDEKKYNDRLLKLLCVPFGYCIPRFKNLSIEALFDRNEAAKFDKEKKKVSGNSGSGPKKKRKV

[3] = molecular target: T3, CD246 PV1-GAI-L1-RfxCas13d-566C-NLS-BGHpA
T3 sequence: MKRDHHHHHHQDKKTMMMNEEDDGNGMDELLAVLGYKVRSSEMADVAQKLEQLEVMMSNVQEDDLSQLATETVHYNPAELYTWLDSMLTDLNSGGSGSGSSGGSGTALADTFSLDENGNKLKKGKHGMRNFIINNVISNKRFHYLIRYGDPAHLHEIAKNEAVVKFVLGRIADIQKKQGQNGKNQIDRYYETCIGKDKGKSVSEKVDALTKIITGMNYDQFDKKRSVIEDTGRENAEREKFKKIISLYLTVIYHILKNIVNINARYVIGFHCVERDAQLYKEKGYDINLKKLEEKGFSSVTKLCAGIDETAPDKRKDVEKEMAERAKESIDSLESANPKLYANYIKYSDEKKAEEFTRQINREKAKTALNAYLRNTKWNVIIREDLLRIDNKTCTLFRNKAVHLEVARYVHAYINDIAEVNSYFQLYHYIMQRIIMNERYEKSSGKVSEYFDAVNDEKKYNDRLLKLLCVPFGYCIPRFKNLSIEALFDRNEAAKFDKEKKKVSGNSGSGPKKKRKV

[4] = molecular target: CD92 PV1-CaffVHH-L1-iCre-271C-NLS-BGHpA
Sequence of CD92 PV1-CaffVHH-L1-iCre-271C-NLS-BGHpA (chain, as listed by the source): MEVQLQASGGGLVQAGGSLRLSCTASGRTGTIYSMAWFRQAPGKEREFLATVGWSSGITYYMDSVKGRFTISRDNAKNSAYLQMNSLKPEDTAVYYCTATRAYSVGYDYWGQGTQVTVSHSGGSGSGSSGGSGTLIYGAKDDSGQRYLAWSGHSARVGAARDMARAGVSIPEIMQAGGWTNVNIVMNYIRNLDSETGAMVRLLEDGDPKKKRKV

[5] = molecular target: T4, CD374 PV1-RfxCas13d-560C-NLS-BGHpA
T4 sequence: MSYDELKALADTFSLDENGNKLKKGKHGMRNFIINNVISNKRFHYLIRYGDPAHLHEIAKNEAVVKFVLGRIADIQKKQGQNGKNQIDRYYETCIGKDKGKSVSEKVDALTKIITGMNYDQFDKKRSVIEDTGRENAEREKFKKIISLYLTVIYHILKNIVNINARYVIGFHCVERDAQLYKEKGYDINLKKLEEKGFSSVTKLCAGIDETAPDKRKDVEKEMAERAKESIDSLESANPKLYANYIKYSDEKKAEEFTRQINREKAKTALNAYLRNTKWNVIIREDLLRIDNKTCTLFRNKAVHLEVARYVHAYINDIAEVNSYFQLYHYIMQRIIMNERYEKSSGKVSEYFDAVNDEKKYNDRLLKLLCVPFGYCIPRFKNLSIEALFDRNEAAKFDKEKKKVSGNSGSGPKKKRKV

B2: CD399 PV1-RfxCas13d-N263-L1-GID-NLS-BGHpA (protein)
chain: MIEKKKSFAKGMGVKSTLVSGSKVYMTTFAEGSDARLEKIVEGDSIRSVNEGEAFSAEMADKNAGYKIGNAKFSHPKGYAVVANNPLYTGPVQQDMLGLKETLEKRYFGESADGNDNICIQVIHNILDIEKILAEYITNAAYAVNNISGLDKDIIGFGKFSTVYTYDEFKDPEHHRAAFNNNDKLINAIKAQYDEFDNFLDNPRLGYFGQAFFSKEGRNYIINYGNECYDILALLSGLRHWVVHNNEEESRISRTWLYNLDKNLSGGSGSGSSGGSGTMAASDEVNLIESRTVVPLNTWVLISNFKVAYNILRRPDGTFNRHLAEYLDRKVTANANPVDGVFSFDVLIDRRINLLSRVYRPAYADQEQPPSILDLEKPVDGDIVPVILFFHGGSFAHSSANSAIYDTLCRRLVGLCKCVVVSVNYRRAPENPYPCAYDDGWIALNWVNSRSWLKSKKDSKVHIFLAGDSSGGNIAHNVALRAGESGIDVLGNILLNPMFGGNERTESEKSLDGKYFVTVRDRDWYWKAFLPEGEDREHPACNPFSPRGKSLEGVSFPKSLVVVAGLDLIRDWQLAYAEGLKKAGQEVKLMHLEKATVGFYLLPNNNHFHNVMDEISAFVNAECPKKKRKV
mCherry knockdown efficiency with GIB CID domains [2]: > 60%

B3: CD245 PV1-RfxCas13d-N565-L1-GID-NLS-BGHpA (protein)
chain: MIEKKKSFAKGMGVKSTLVSGSKVYMTTFAEGSDARLEKIVEGDSIRSVNEGEAFSAEMADKNAGYKIGNAKFSHPKGYAVVANNPLYTGPVQQDMLGLKETLEKRYFGESADGNDNICIQVIHNILDIEKILAEYITNAAYAVNNISGLDKDIIGFGKFSTVYTYDEFKDPEHHRAAFNNNDKLINAIKAQYDEFDNFLDNPRLGYFGQAFFSKEGRNYIINYGNECYDILALLSGLRHWVVHNNEEESRISRTWLYNLDKNLDNEYISTLNYLYDRITNELTNSFSKNSAANVNYIAETLGINPAEFAEQYFRFSIMKEQKNLGFNITKLREVMLDRKDMSEIRKNHKVFDSIRTKVYTMMDFVIYRYYIEEDAKVAAANKSLPDNEKSLSEKDIFVINLRGSFNDDQKDALYYDEANRIWRKLENIMHNIKEFRGNKTREYKKKDAPRLPRILPAGRDVSAFSKLMYALTMFLDGKEINDLLTTLINKFDNIQSFLKVMPLIGVNAKFVEEYAFFKDSAKIADELRLIKSFARMGEPIADARRAMYIDAIRILGTNLSYDELKSGGSGSGSSGGSGTMAASDEVNLIESRTVVPLNTWVLISNFKVAYNILRRPDGTFNRHLAEYLDRKVTANANPVDGVFSFDVLIDRRINLLSRVYRPAYADQEQPPSILDLEKPVDGDIVPVILFFHGGSFAHSSANSAIYDTLCRRLVGLCKCVVVSVNYRRAPENPYPCAYDDGWIALNWVNSRSWLKSKKDSKVHIFLAGDSSGGNIAHNVALRAGESGIDVLGNILLNPMFGGNERTESEKSLDGKYFVTVRDRDWYWKAFLPEGEDREHPACNPFSPRGKSLEGVSFPKSLVVVAGLDLIRDWQLAYAEGLKKAGQEVKLMHLEKATVGFYLLPNNNHFHNVMDEISAFVNAECPKKKRKV
mCherry knockdown with gRNA and gibberellin (drug-induced) [3]: > 75%
mCherry knockdown with gRNA, without gibberellin (basal) [3]: 10 to 20%

B5: CD373 PV1-RfxCas13d-N559-NLS-BGHpA (protein)
chain: MIEKKKSFAKGMGVKSTLVSGSKVYMTTFAEGSDARLEKIVEGDSIRSVNEGEAFSAEMADKNAGYKIGNAKFSHPKGYAVVANNPLYTGPVQQDMLGLKETLEKRYFGESADGNDNICIQVIHNILDIEKILAEYITNAAYAVNNISGLDKDIIGFGKFSTVYTYDEFKDPEHHRAAFNNNDKLINAIKAQYDEFDNFLDNPRLGYFGQAFFSKEGRNYIINYGNECYDILALLSGLRHWVVHNNEEESRISRTWLYNLDKNLDNEYISTLNYLYDRITNELTNSFSKNSAANVNYIAETLGINPAEFAEQYFRFSIMKEQKNLGFNITKLREVMLDRKDMSEIRKNHKVFDSIRTKVYTMMDFVIYRYYIEEDAKVAAANKSLPDNEKSLSEKDIFVINLRGSFNDDQKDALYYDEANRIWRKLENIMHNIKEFRGNKTREYKKKDAPRLPRILPAGRDVSAFSKLMYALTMFLDGKEINDLLTTLINKFDNIQSFLKVMPLIGVNAKFVEEYAFFKDSAKIADELRLIKSFARMGEPIADARRAMYIDAIRILGTNLPKKKRKV
gRNA induced mCherry knockdown efficiency, no CID domain [5]: < 80%

Continued, values first:

mCherry knockdown with gRNA and gibberellin (drug-induced) [1]: > 75%
mCherry knockdown with gRNA, without gibberellin (basal) [1]: 10 to 20%
B1: CD243 PV1-RfxCas13d-N559-L1-GID-NLS-BGHpA (protein)
chain: MIEKKKSFAKGMGVKSTLVSGSKVYMTTFAEGSDARLEKIVEGDSIRSVNEGEAFSAEMADKNAGYKIGNAKFSHPKGYAVVANNPLYTGPVQQDMLGLKETLEKRYFGESADGNDNICIQVIHNILDIEKILAEYITNAAYAVNNISGLDKDIIGFGKFSTVYTYDEFKDPEHHRAAFNNNDKLINAIKAQYDEFDNFLDNPRLGYFGQAFFSKEGRNYIINYGNECYDILALLSGLRHWVVHNNEEESRISRTWLYNLDKNLDNEYISTLNYLYDRITNELTNSFSKNSAANVNYIAETLGINPAEFAEQYFRFSIMKEQKNLGFNITKLREVMLDRKDMSEIRKNHKVFDSIRTKVYTMMDFVIYRYYIEEDAKVAAANKSLPDNEKSLSEKDIFVINLRGSFNDDQKDALYYDEANRIWRKLENIMHNIKEFRGNKTREYKKKDAPRLPRILPAGRDVSAFSKLMYALTMFLDGKEINDLLTTLINKFDNIQSFLKVMPLIGVNAKFVEEYAFFKDSAKIADELRLIKSFARMGEPIADARRAMYIDAIRILGTNLSGGSGSGSSGGSGTMAASDEVNLIESRTVVPLNTWVLISNFKVAYNILRRPDGTFNRHLAEYLDRKVTANANPVDGVFSFDVLIDRRINLLSRVYRPAYADQEQPPSILDLEKPVDGDIVPVILFFHGGSFAHSSANSAIYDTLCRRLVGLCKCVVVSVNYRRAPENPYPCAYDDGWIALNWVNSRSWLKSKKDSKVHIFLAGDSSGGNIAHNVALRAGESGIDVLGNILLNPMFGGNERTESEKSLDGKYFVTVRDRDWYWKAFLPEGEDREHPACNPFSPRGKSLEGVSFPKSLVVVAGLDLIRDWQLAYAEGLKKAGQEVKLMHLEKATVGFYLLPNNNHFHNVMDEISAFVNAECPKKKRKV

Cre reporter expression (share of transfected cells), 25 uM caffeine for 5 hours (% of transfected cells) [4]: 30
Cre reporter turned on (share of transfected cells), caffeine at least 50 uM, induction at least 5 hours (% transfected cells) [4]: 38
Cre reporter turned on (share of transfected cells), caffeine induction, 48 hours (% transfected cells) [4]: > 80
B4: CD91 PV1-iCre-N270-L1-CaffVHH-NLS-BGHpA (protein)
chain: MSNLLTVHQNLPALPVDATSDEVRKNLMDMFRDRQAFSEHTWKMLLSVCRSWAAWCKLNNRKWFPAEPEDVRDYLLYLQARGLAVKTIQQHLGQLNMLHRRSGLPRPSDSNAVSLVMRRIRKENVDAGERAKQALAFERTDFDQVRSLMENSDRCQDIRNLAFLGIAYNTLLRIAEIARIRVKDISRTDGGRMLIHIGRTKTLVSTAGVEKALSLGVTKLVERWISVSGVADDPNNYLFCRVRKNGVAAPSATSQLSTRALEGIFEATHRSGGSGSGSSGGSGTMEVQLQASGGGLVQAGGSLRLSCTASGRTGTIYSMAWFRQAPGKEREFLATVGWSSGITYYMDSVKGRFTISRDNAKNSAYLQMNSLKPEDTAVYYCTATRAYSVGYDYWGQGTQVTVSHPKKKRKV
